Assay results taken from US7902330 (ALBERT EINSTEIN COLLEGE OF MEDICINE OF YESHIVA UNIVERSITY, dated 2011).
Starred links: 1 amine or outer side, 2 acyl side, 3 side chain; linkers in the order of their positions; H or OH if unused. Non-standard residues stand in square brackets, D forms with d. *: point of attachment. 4‑nitrohippuryl = O=C(NCC(=O)*)c1ccc([N+](=O)[O-])cc1; Benzoyl(4-(pyrrol-1-yl)) = O=C(c1ccc(-n2cccc2)cc1)*; bis(2,3-dihydroxybenzyl) = not defined here; Cysteamide = C(CS[*:3])N[*:1]; Dap = NC[C@H](N)C(=O)O

T1: protein kinase C ε (UniProt Q02156 1-737, limits assumed)
T1 sequence (looked up): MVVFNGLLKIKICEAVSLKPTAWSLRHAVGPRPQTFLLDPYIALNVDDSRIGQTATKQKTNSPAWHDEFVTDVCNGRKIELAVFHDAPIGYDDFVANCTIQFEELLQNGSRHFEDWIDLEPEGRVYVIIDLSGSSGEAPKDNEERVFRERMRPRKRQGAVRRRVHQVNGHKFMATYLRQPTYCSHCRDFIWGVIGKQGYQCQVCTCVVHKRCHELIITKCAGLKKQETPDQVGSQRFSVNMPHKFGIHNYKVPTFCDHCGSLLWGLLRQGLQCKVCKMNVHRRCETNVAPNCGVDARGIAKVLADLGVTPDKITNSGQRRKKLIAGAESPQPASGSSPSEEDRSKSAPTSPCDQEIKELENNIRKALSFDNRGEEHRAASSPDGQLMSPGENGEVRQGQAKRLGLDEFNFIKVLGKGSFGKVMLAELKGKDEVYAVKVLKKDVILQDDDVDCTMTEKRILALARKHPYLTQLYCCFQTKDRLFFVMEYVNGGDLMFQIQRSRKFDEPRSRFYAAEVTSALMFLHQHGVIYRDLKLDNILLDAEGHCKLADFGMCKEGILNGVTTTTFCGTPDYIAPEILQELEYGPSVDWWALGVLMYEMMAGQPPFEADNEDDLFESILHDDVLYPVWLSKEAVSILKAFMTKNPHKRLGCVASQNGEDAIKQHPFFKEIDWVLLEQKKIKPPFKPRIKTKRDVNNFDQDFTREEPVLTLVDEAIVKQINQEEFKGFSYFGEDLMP

T2: protein kinase C ζ (UniProt Q05513 1-592, limits assumed)
T2 sequence (looked up): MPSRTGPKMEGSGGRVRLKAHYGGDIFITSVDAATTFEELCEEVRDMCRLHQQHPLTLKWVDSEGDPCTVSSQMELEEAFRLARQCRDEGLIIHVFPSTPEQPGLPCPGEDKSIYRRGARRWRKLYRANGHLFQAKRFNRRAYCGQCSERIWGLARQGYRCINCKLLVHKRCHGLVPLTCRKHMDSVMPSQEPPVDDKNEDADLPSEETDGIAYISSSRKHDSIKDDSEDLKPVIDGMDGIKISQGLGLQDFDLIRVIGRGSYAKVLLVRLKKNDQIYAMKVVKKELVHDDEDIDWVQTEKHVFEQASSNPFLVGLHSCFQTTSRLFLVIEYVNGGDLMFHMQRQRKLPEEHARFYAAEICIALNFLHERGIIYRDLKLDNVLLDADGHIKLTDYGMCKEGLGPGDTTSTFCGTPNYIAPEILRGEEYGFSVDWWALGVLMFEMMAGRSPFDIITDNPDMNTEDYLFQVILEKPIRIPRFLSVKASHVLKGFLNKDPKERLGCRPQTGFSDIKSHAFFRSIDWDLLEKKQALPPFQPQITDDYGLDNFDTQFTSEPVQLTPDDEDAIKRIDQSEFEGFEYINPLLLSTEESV

T3: protein kinase C τ (atypical; ι in the tables) (UniProt P41743 1-596)
T3 sequence (looked up): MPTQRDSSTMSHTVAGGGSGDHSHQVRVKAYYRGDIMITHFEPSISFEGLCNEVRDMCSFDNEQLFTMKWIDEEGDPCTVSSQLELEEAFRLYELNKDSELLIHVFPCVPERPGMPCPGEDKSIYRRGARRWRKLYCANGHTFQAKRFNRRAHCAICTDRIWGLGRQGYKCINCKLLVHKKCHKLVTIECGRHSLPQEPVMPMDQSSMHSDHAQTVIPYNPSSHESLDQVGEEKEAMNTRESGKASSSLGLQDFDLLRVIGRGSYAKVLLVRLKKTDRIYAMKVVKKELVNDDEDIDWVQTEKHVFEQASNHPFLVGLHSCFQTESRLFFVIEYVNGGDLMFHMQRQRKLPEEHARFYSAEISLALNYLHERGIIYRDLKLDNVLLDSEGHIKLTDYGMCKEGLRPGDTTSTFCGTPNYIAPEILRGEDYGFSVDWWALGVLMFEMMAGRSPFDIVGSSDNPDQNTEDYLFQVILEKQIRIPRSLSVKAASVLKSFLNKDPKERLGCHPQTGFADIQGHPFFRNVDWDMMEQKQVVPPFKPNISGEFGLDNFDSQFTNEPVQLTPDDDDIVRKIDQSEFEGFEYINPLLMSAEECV


Tests used:
protein kinase C η [1] = molecular target: T4, protein kinase C η (UniProt P24723 1-683, limits assumed); assay: cell-based or functional assay
T4 sequence (P24723 whole entry): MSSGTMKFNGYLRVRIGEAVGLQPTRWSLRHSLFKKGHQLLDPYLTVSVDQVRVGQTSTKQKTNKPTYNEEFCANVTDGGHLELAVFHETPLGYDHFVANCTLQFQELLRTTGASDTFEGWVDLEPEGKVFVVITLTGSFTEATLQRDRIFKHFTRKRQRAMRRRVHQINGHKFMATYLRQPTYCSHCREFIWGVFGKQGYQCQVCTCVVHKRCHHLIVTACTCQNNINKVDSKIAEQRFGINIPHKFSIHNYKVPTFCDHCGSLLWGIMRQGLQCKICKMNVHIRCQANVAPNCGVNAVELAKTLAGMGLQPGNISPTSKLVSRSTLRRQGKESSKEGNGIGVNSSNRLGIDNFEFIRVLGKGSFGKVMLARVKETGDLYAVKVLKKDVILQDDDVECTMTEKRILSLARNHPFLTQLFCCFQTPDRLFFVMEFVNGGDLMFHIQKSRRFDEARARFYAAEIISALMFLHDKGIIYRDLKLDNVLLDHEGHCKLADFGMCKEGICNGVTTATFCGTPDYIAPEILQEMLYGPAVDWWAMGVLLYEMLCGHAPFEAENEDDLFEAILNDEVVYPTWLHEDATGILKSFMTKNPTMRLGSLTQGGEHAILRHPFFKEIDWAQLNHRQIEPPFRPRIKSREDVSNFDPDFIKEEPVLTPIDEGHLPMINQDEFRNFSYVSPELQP

protein kinase C ε [2] = molecular target: T1, protein kinase C ε; assay: cell-based or functional assay
protein kinase C βI [3] = molecular target: T5, protein kinase C βI (UniProt P05771-1 1-671, limits assumed); assay: cell-based or functional assay
T5 sequence (P05771 whole entry): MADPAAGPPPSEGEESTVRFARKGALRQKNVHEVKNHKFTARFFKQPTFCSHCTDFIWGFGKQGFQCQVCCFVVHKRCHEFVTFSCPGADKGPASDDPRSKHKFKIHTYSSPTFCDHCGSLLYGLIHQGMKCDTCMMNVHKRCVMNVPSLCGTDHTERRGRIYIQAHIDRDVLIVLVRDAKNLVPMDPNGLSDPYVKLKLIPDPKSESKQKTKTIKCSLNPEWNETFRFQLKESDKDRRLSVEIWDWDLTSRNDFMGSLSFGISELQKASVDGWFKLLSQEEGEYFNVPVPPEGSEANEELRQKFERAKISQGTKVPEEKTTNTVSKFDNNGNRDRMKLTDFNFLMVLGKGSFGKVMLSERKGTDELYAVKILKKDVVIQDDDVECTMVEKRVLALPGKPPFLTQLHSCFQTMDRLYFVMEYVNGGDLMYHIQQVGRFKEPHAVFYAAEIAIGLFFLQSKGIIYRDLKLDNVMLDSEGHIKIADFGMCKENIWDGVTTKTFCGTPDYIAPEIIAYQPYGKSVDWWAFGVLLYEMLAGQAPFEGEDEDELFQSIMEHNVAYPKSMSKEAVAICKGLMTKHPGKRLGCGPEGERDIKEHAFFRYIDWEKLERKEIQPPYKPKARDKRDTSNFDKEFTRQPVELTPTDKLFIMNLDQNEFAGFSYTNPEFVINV

protein kinase C θ [4] = molecular target: T6, protein kinase C θ (UniProt Q04759 1-706, limits assumed); assay: cell-based or functional assay
T6 sequence (Q04759 whole entry): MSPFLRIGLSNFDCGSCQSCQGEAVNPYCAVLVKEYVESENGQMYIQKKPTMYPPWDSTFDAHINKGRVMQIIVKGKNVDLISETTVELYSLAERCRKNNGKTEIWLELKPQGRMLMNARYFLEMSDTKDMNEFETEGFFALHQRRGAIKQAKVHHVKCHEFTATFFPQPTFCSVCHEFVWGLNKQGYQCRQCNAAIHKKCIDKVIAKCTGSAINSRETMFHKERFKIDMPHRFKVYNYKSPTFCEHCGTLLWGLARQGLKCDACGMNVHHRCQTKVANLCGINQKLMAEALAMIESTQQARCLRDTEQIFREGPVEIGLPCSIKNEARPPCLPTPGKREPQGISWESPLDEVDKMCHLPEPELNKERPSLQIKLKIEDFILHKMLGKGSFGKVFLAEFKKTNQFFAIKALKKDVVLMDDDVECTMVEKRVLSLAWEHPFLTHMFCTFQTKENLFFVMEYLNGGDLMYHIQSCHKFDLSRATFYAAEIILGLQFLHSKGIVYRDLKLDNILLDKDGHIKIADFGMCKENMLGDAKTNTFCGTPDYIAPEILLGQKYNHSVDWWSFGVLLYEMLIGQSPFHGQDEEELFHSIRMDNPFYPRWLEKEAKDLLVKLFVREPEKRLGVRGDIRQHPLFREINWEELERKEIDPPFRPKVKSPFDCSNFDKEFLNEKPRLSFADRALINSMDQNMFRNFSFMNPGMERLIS

protein kinase C γ [5] = molecular target: T7, protein kinase C γ (UniProt P05129 1-697, limits assumed); assay: cell-based or functional assay
protein kinase Cα [6] = molecular target: T8, protein kinase Cα (UniProt P17252 1-672, limits assumed); assay: cell-based or functional assay
protein kinase C ζ [7] = molecular target: T2, protein kinase C ζ; assay: cell-based or functional assay
[8] = molecular target: T3, protein kinase C τ (atypical; printed ι …); assay: cell-based or functional assay
protein kinase C η [9] = molecular target: T4, protein kinase C η; assay: cell-based or functional assay; remark: listed apart in the source
protein kinase C ε [10] = molecular target: T1, protein kinase C ε; assay: cell-based or functional assay; remark: listed apart in the source
protein kinase C βI [11] = molecular target: T5, protein kinase C βI; assay: cell-based or functional assay; remark: listed apart in the source
protein kinase C θ [12] = molecular target: T6, protein kinase C θ; assay: cell-based or functional assay; remark: listed apart in the source
protein kinase C γ [13] = molecular target: T7, protein kinase C γ; assay: cell-based or functional assay; remark: listed apart in the source
protein kinase Cα [14] = molecular target: T8, protein kinase Cα; assay: cell-based or functional assay; remark: listed apart in the source
protein kinase C ζ [15] = molecular target: T2, protein kinase C ζ; assay: cell-based or functional assay; remark: listed apart in the source
protein kinase C ζ [16] = molecular target: T2, protein kinase C ζ; assay: PKC ζ 33P kinase assay, double reciprocal plots at variable peptide substrate; competitive pattern
Protocol: K_i determinations. […] ATP for radioactive detection. 10 µL enzyme diluted buffer containing 20 mM Tris (pH 7.5), PKC (10 ng/well), 0.5 mM DTT, BSA (375 µg/mL) and 0.5 mM EDTA.4Na.2H_2O was added to initiate the reaction. Total reaction volume in each well was 50 µL. All the wells were tested in the same plate and each concentration was tested in triplicate. Subsequent assay workup and scintillation counting were performed as described above. Double reciprocal plots were obtained at different concentrations of substrates. K_i values were calculated using Enzyme Kinetics, SigmaPlot (SPSS Inc.).

protein kinase Cα [17] = molecular target: T8, protein kinase Cα; assay: equilibrium dialysis with fluorescence read-out, 250 nM PKCα and 500 nM peptide 7, 4° C., with AMP-PNP
Protocol: (§1) Determination of K_D Values. […] All samples were prepared in a buffer containing 50 mM HEPES (pH 7.5), 0.8 mM CaCl_2.2H_2O, 13.6 mM MgCl_2.6H_2O, 0.56 mM EGTA.Na, phosphatidylserine (90 µg/mL), diacylglycerol (16 µg/mL), 4 mM Tris (pH 7.5), 0.2 mM DTT, BSA (146 µg/mL), 0.2 mM EDTA.4Na.2H_2O and AMP-PNP (a nonhydrolyzable ATP analogue) or without AMP-PNP at pH 7.5. Slide-A-Lyzer dialysis slide cassettes (Pierce, 10K MWCO, 0.1-0.5 mL capacity) were employed and contained 250 nM PKCα and 500 nM fluorescein-labeled peptide 7. The slide cassettes contained a final volume of 180 µL. The cassettes were placed in beaker containing a volume of buffer solution that was at least 500-fold greater than that of the sample volume in the dialysis slide cassette. Equilibrium dialysis experiments were performed over a period of 16 hr and maintained at 4° C. The fluorescence intensity of the solutions in the slide cassette (F_i) and in the beaker (F_o) was measured. The excitation wavelength for the fluorescein-labeled peptide 7 was 499 nm and the emission monitored at 519 nm. The K_D values were calculated from Equation 1.

protein kinase Cα [18] = molecular target: T8, protein kinase Cα; assay: equilibrium dialysis with fluorescence read-out, 250 nM PKCα and 500 nM peptide 7, 4° C., without AMP-PNP
Protocol: as §1

Binder | IC50, PKC kinase assay (33P, peptide substrate) (protein kinase C η [1]) [µM] | IC50, PKC kinase assay (33P, peptide substrate) (protein kinase C ε [2]) [µM] | IC50, PKC kinase assay (33P, peptide substrate) (protein kinase C βI [3]) [µM] | IC50, PKC kinase assay (33P, peptide substrate) (protein kinase C θ [4]) [µM] | IC50, PKC kinase assay (33P, peptide substrate) (protein kinase C γ [5]) [µM] | IC50, PKC kinase assay (33P, peptide substrate) (protein kinase Cα [6]) [µM] | IC50, PKC kinase assay (33P, peptide substrate) (protein kinase C ζ [7]) [µM] | Fold selectivity (IC50), PKC ζ = 1 [8] [fold] | Fold selectivity (IC50), PKC ζ = 1 (protein kinase C η [9]) [fold] | Fold selectivity (IC50), PKC ζ = 1 (protein kinase C ε [10]) [fold] | Fold selectivity (IC50), PKC ζ = 1 (protein kinase C βI [11]) [fold] | Fold selectivity (IC50), PKC ζ = 1 (protein kinase C θ [12]) [fold] | Fold selectivity (IC50), PKC ζ = 1 (protein kinase C γ [13]) [fold] | Fold selectivity (IC50), PKC ζ = 1 (protein kinase Cα [14]) [fold] | Fold selectivity (IC50), PKC ζ = 1 (protein kinase C ζ [15]) [fold] | IC50 or Ki of the most potently inhibited isoform (protein kinase C ζ [15]) [µM] | Ki (protein kinase C ζ [16]) [µM] | Kd (protein kinase Cα [17]) [µM] | Kd (protein kinase Cα [18]) [µM]
{bis(2,3-dihydroxybenzyl)}-RRQG[Dap](4‑nitrohippuryl)FMYF-Cysteamide (reading uncertain) [Compound G (doubly alkylated analogue of F)] | 15.3 | 34.5 | 5.5 | 16.7 | 38.2 | 47.5 | 0.00075 | 1490 | 2040 | 4600 | 730 | 2230 | 5090 | 6330 | 1 | 0.0075 | 0.0039 |  | 
Ac-ARRGALR[Dap](Benzoyl(4-(pyrrol-1-yl)))A-{NH(CH2)2S-CH2CONH‑fluorescein‑5‑yl} [fluorescein-labeled peptide 7] |  |  |  |  |  |  |  |  |  |  |  |  |  |  |  |  |  | 0.203 | 1.8
